This is an account of results in article PMC10341550 (2023).

The test concerns the target ROCK2 (Homo sapiens, UniProt O75116). Description: competition fluorescence polarization. On the technique in general: In fluorescence polarisation assays a small probe gives low polarisation when free and higher when bound to something large.

The Kd is the equilibrium constant for the complex coming apart. A low value points to higher affinity.

Sequence of ROCK2 (O75116 whole entry): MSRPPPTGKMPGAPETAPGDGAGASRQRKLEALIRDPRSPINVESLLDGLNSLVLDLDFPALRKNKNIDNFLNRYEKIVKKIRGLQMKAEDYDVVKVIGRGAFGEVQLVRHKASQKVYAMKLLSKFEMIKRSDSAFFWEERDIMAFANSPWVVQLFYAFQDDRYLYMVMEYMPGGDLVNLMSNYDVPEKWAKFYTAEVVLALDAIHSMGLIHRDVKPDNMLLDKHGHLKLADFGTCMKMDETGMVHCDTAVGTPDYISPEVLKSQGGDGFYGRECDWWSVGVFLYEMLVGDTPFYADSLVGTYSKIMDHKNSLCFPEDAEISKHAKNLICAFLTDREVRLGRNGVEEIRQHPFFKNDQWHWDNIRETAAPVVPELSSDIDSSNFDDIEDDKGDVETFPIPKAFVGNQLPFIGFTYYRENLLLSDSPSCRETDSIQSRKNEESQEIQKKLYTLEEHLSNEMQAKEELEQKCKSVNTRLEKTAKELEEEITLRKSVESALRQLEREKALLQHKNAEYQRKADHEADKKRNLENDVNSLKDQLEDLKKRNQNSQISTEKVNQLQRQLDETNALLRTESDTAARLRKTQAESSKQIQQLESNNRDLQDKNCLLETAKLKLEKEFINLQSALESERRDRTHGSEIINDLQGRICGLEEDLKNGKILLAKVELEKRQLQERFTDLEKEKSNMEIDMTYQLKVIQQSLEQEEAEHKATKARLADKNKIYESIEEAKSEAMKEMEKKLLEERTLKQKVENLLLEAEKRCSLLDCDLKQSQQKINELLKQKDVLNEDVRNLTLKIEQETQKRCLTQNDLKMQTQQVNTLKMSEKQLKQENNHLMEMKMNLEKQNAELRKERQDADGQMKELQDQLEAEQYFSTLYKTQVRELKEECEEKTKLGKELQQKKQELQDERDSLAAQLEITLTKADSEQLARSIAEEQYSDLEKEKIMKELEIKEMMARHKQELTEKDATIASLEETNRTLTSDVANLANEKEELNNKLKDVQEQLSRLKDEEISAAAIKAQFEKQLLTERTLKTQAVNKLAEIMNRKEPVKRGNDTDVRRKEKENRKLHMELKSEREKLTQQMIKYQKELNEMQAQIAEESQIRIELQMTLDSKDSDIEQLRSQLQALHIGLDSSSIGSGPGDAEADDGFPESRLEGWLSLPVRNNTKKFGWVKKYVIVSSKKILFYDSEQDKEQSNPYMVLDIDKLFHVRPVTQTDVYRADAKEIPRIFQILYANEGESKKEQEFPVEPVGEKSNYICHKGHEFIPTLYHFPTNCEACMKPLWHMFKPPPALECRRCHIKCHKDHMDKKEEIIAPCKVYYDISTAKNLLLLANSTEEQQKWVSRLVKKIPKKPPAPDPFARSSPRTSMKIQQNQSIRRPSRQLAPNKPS

B1: APP 646-695 (peptide)
chain: ADRGLTTRPGSGLTNIKTEEISEVKMDAEFRHDSGYEVHHQKLVFFAEDV
modifications: BACE1 C-terminal peptide present
For the molecule B1, binding was put at a Kd of 3.5 nM. This lies in the single-digit nanomolar range.
